We go through 27 molecules from PMC10786891, “Massively parallel profiling of RNA-targeting CRISPR-Cas13d”.

Where only a bound is given, the exact number is not on record here.

T1: EsCas13d, nuclease-dead (Eubacterium siraeum, UniProt B0MS50, R295A;H300A;R849A;H854A)
T1 sequence: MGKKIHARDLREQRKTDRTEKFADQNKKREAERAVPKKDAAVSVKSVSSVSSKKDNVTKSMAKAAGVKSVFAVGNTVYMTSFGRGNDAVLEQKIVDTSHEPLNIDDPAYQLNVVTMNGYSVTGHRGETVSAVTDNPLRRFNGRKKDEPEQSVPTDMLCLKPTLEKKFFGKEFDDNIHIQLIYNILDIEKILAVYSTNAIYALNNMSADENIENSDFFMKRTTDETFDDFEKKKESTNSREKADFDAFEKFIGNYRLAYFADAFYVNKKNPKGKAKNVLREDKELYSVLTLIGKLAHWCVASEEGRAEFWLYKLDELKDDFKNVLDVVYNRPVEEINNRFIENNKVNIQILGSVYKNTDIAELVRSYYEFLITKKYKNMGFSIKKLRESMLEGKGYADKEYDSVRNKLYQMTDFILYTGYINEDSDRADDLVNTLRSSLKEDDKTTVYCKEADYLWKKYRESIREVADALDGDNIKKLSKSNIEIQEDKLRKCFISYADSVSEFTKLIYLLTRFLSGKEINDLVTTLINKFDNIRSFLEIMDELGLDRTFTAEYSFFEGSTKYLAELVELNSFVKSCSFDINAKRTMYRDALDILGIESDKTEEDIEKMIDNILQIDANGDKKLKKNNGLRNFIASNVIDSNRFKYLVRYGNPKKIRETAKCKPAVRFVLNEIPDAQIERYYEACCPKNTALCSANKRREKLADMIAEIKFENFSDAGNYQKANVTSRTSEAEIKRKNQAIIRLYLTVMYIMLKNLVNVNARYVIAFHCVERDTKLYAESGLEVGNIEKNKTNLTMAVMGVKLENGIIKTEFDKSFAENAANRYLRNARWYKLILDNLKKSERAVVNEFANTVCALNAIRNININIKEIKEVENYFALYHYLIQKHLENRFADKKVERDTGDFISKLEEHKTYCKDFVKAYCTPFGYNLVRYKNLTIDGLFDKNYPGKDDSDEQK

B1: target 1 C6G,U19C (mixed)
RNA 1: CACCCGUGCAAAAAUGCAGGGGUCUAAAACUGAGCGGAUAACCUCUCUAUGG
RNA 2: GGGAAUGGAUCCACAUCUACGAAUUCGUACCACAGAGAGGUUAUCGGCUCACCGAGAUCGGAAGAGCACACGU
B2: target 1 C4U,U8C (mixed)
RNA 1: CACCCGUGCAAAAAUGCAGGGGUCUAAAACUGAGCGGAUAACCUCUCUAUGG
RNA 2: GGGAAUGGAUCCACAUCUACGAAUUCGUACCAUAGAGAGGUUACCCGUUCACCGAGAUCGGAAGAGCACACGU
B3: target 1 U11A (mixed)
RNA 1: CACCCGUGCAAAAAUGCAGGGGUCUAAAACUGAGCGGAUAACCUCUCUAUGG
RNA 2: GGGAAUGGAUCCACAUCUACGAAUUCGUACCAUAGAGAGGAUAUCCGCUCACCGAGAUCGGAAGAGCACACGU
B4: target 1 U3A,U10G (mixed)
RNA 1: CACCCGUGCAAAAAUGCAGGGGUCUAAAACUGAGCGGAUAACCUCUCUAUGG
RNA 2: GGGAAUGGAUCCACAUCUACGAAUUCGUACCAUAGAGAGGUGAUCCGCACACCGAGAUCGGAAGAGCACACGU
B5: non-target control (mixed)
RNA 1: CACCCGUGCAAAAAUGCAGGGGUCUAAAACUGAGCGGAUAACCUCUCUAUGG
RNA 2: GGGAAUGGAUCCACAUCUACGAAUUCGUUAGCUAGAAGGGGAAGUUGGUUAUGGAGAUCGGAAGAGCACACGU
B6: target 1 A1G,A9U (mixed)
RNA 1: CACCCGUGCAAAAAUGCAGGGGUCUAAAACUGAGCGGAUAACCUCUCUAUGG
RNA 2: GGGAAUGGAUCCACAUCUACGAAUUCGUACCAUAGAGAGGUUUUCCGCUCGCCGAGAUCGGAAGAGCACACGU
B7: target 1 insG 3' of 9,insA 3' of 5 (mixed)
RNA 1: CACCCGUGCAAAAAUGCAGGGGUCUAAAACUGAGCGGAUAACCUCUCUAUGG
RNA 2: GGGAAUGGAUCCACAUCUACGAAUUCGUACCAUAGAGAGGUUAGUCCGACUCACCGAGAUCGGAAGAGCACACGU
B8: target 1 A9C,U11C (mixed)
RNA 1: CACCCGUGCAAAAAUGCAGGGGUCUAAAACUGAGCGGAUAACCUCUCUAUGG
RNA 2: GGGAAUGGAUCCACAUCUACGAAUUCGUACCAUAGAGAGGCUCUCCGCUCACCGAGAUCGGAAGAGCACACGU
B9: target 1 insG 3' of 22,insA 3' of 8 (mixed)
RNA 1: CACCCGUGCAAAAAUGCAGGGGUCUAAAACUGAGCGGAUAACCUCUCUAUGG
RNA 2: GGGAAUGGAUCCACAUCUACGAAUUCGUACGCAUAGAGAGGUUAUACCGCUCACCGAGAUCGGAAGAGCACACGU
B10: target 1 insC 3' of 17,insG 3' of 14 (mixed)
RNA 1: CACCCGUGCAAAAAUGCAGGGGUCUAAAACUGAGCGGAUAACCUCUCUAUGG
RNA 2: GGGAAUGGAUCCACAUCUACGAAUUCGUACCAUAGCAGAGGGUUAUCCGCUCACCGAGAUCGGAAGAGCACACGU
B11: target 1 insA 3' of 13,insC 3' of 12 (mixed)
RNA 1: CACCCGUGCAAAAAUGCAGGGGUCUAAAACUGAGCGGAUAACCUCUCUAUGG
RNA 2: GGGAAUGGAUCCACAUCUACGAAUUCGUACCAUAGAGAGAGCUUAUCCGCUCACCGAGAUCGGAAGAGCACACGU
B12: target 1 A9U (mixed)
RNA 1: CACCCGUGCAAAAAUGCAGGGGUCUAAAACUGAGCGGAUAACCUCUCUAUGG
RNA 2: GGGAAUGGAUCCACAUCUACGAAUUCGUACCAUAGAGAGGUUUUCCGCUCACCGAGAUCGGAAGAGCACACGU
B13: target 1 insC 3' of 9,insA 3' of 7 (mixed)
RNA 1: CACCCGUGCAAAAAUGCAGGGGUCUAAAACUGAGCGGAUAACCUCUCUAUGG
RNA 2: GGGAAUGGAUCCACAUCUACGAAUUCGUACCAUAGAGAGGUUACUCACGCUCACCGAGAUCGGAAGAGCACACGU
B14: target 1 C6G,U11C (mixed)
RNA 1: CACCCGUGCAAAAAUGCAGGGGUCUAAAACUGAGCGGAUAACCUCUCUAUGG
RNA 2: GGGAAUGGAUCCACAUCUACGAAUUCGUACCAUAGAGAGGCUAUCGGCUCACCGAGAUCGGAAGAGCACACGU
B15: target 1 insG 3' of 11,insA 3' of 11 (mixed)
RNA 1: CACCCGUGCAAAAAUGCAGGGGUCUAAAACUGAGCGGAUAACCUCUCUAUGG
RNA 2: GGGAAUGGAUCCACAUCUACGAAUUCGUACCAUAGAGAGGUGAUAUCCGCUCACCGAGAUCGGAAGAGCACACGU
B16: target 1 insA 3' of 15,insC 3' of 8 (mixed)
RNA 1: CACCCGUGCAAAAAUGCAGGGGUCUAAAACUGAGCGGAUAACCUCUCUAUGG
RNA 2: GGGAAUGGAUCCACAUCUACGAAUUCGUACCAUAGAGAAGGUUAUCCCGCUCACCGAGAUCGGAAGAGCACACGU
B17: target 2 MT 5'PFS CGC 3'PFS UAU (mixed)
RNA 1: CACCCGUGCAAAAUUGCAGGGGUCUAAAACCUUCUCCAAAUUGUUUCAUCCU
RNA 2: GGGAAUGGAUCCACAUCUACGAAUUCCGCAGGAUGAAACAAUUUGGAGAAGUAUAGAUCGGAAGAGCACACGU
B18: target 2 MT 5'PFS UAU 3'PFS GCA (mixed)
RNA 1: CACCCGUGCAAAAUUGCAGGGGUCUAAAACCUUCUCCAAAUUGUUUCAUCCU
RNA 2: GGGAAUGGAUCCACAUCUACGAAUUCUAUAGGAUGAAACAAUUUGGAGAAGGCAAGAUCGGAAGAGCACACGU
B19: target 2 MT 5'PFS GGC 3'PFS UGC (mixed)
RNA 1: CACCCGUGCAAAAUUGCAGGGGUCUAAAACCUUCUCCAAAUUGUUUCAUCCU
RNA 2: GGGAAUGGAUCCACAUCUACGAAUUCGGCAGGAUGAAACAAUUUGGAGAAGUGCAGAUCGGAAGAGCACACGU
B20: target 2 MT 5'PFS GCG 3'PFS UGU (mixed)
RNA 1: CACCCGUGCAAAAUUGCAGGGGUCUAAAACCUUCUCCAAAUUGUUUCAUCCU
RNA 2: GGGAAUGGAUCCACAUCUACGAAUUCGCGAGGAUGAAACAAUUUGGAGAAGUGUAGAUCGGAAGAGCACACGU
B21: target 2 MT 5'PFS CGC 3'PFS UAA (mixed)
RNA 1: CACCCGUGCAAAAUUGCAGGGGUCUAAAACCUUCUCCAAAUUGUUUCAUCCU
RNA 2: GGGAAUGGAUCCACAUCUACGAAUUCCGCAGGAUGAAACAAUUUGGAGAAGUAAAGAUCGGAAGAGCACACGU
B22: target 2 MT 5'PFS CGC 3'PFS UAC (mixed)
RNA 1: CACCCGUGCAAAAUUGCAGGGGUCUAAAACCUUCUCCAAAUUGUUUCAUCCU
RNA 2: GGGAAUGGAUCCACAUCUACGAAUUCCGCAGGAUGAAACAAUUUGGAGAAGUACAGAUCGGAAGAGCACACGU
B23: target 2 MT 5'PFS GUA 3'PFS AGU (mixed)
RNA 1: CACCCGUGCAAAAUUGCAGGGGUCUAAAACCUUCUCCAAAUUGUUUCAUCCU
RNA 2: GGGAAUGGAUCCACAUCUACGAAUUCGUAAGGAUGAAACAAUUUGGAGAAGAGUAGAUCGGAAGAGCACACGU
B24: target 2 MT 5'PFS GUA 3'PFS AGC (mixed)
RNA 1: CACCCGUGCAAAAUUGCAGGGGUCUAAAACCUUCUCCAAAUUGUUUCAUCCU
RNA 2: GGGAAUGGAUCCACAUCUACGAAUUCGUAAGGAUGAAACAAUUUGGAGAAGAGCAGAUCGGAAGAGCACACGU
B25: target 2 MT 5'PFS CUC 3'PFS ACU (mixed)
RNA 1: CACCCGUGCAAAAUUGCAGGGGUCUAAAACCUUCUCCAAAUUGUUUCAUCCU
RNA 2: GGGAAUGGAUCCACAUCUACGAAUUCCUCAGGAUGAAACAAUUUGGAGAAGACUAGAUCGGAAGAGCACACGU
B26: target 2 MT 5'PFS GUA 3'PFS AGA (mixed)
RNA 1: CACCCGUGCAAAAUUGCAGGGGUCUAAAACCUUCUCCAAAUUGUUUCAUCCU
RNA 2: GGGAAUGGAUCCACAUCUACGAAUUCGUAAGGAUGAAACAAUUUGGAGAAGAGAAGAUCGGAAGAGCACACGU
B27: target 2 MT 5'PFS ACC 3'PFS CCG (mixed)
RNA 1: CACCCGUGCAAAAUUGCAGGGGUCUAAAACCUUCUCCAAAUUGUUUCAUCCU
RNA 2: GGGAAUGGAUCCACAUCUACGAAUUCACCAGGAUGAAACAAUUUGGAGAAGCCGAGAUCGGAAGAGCACACGU

In the series the target is T1, EsCas13d, nuclease-dead. Nature of the series: crRNA (strand 1, pre-loaded); Mg2+; 40 mM Tris-HCl pH 7.5, 150 mM NaCl, 6 mM MgCl2, 1 mM DTT, 0.1% Tween-20, 0.2 mg/ml BSA; 25 C; 10 min per concentration, then washed. As to conditions: tags: His6-TwinStrep-SUMO cleaved; N-terminal SNAP kept (SNAP-Surface 488); label: 3' end held by stalled T7 RNA polymerase.
For the molecule B1, the Kd – broadly, the constant that tells how readily two partners part at equilibrium – worked out at 0.0298 ± 0.0028 µM.
As for B2, binding was characterised by a dissociation constant (Kd) of 0.03 ± 0.004 µM.
With B3 the figure was 0.0307 ± 0.0019 µM.
B4 displayed a Kd of 0.061 ± 0.016 µM.
As for B5, the Kd was over 0.1 µM.
Next, B6: 0.0081 ± 0.0006 µM.
Molecule B7 had a Kd of 0.0103 ± 0.001 µM.
With B8 the figure was 0.02 ± 0.0017 µM; with B9, 0.0359 ± 0.0026 µM; with B10, 0.038 ± 0.004 µM.
With B11, the Kd amounted to 0.0063 ± 0.0009 µM.
Next, B12: 0.0089 ± 0.0007 µM; B13: 0.0104 ± 0.0004 µM; B14: 0.0098 ± 0.0008 µM.
Molecule B15 showed a Kd of 0.0152 ± 0.0008 µM.
B16 yielded a Kd of 0.0152 ± 0.0018 µM.
With B17 the figure was 0.0037 ± 0.0004 µM; with B18, about 0.07 µM.
For B19, binding was put at a Kd of 0.0132 ± 0.0013 µM.
Next, B20: 0.0174 ± 0.0021 µM; B21: 0.0039 ± 0.0006 µM.
Next, B22: 0.0063 ± 0.0008 µM.
Next, B23: 0.0124 ± 0.0014 µM; B24: 0.0064 ± 0.0006 µM; B25: 0.00214 ± 0.00028 µM.
B26 showed a Kd of 0.0065 ± 0.0008 µM.
With B27 the figure was 0.012 ± 0.005 µM.
